# Assay results reported in patent US9539338B2, “Polymer-based protein engineering methods to rationally tune enzyme activity, pH-dependence and stability” (Carnegie Mellon University, priority 2013, dated 2017).
# Legend:
# [1] = Enzyme stability at 25° C. or 40° C., first order inactivation; assay type: physicochemical; settings: 1 mg enzyme/mL, pH 8.0
# Procedure: Native CT and CT conjugates (1 mg enzyme/mL) were dissolved in 0.1 M sodium phosphate buffer (pH 8.0) and incubated in a water bath at either 25° C. or 40° C. At various time points, aliquots were removed and diluted to 0.1 mg enzyme/mL using 0.1 M phosphate buffer (pH 8.0). Residual activity was calculated as the percentage of activity remaining relative to the activity at time zero. Substrate (Suc-AAPF-pNA) concentration was kept constant at 288 μM for each sample and time points.
# [2] = Size measurements during 167 mM HCl (pH 1) incubation; assay type: physicochemical
# Procedure: CT conjugates (4 μM) and native CT (29 μM) passed through a […] cellulose filter were incubated in 167 mM HCl at 37° C. in 1 mL aliquots. Aliquots were removed from incubation at each specified time point. Hydrodynamic diameter was then determined using a Malvern zetasizer nano-ZS at 25° C. Intensity PSD measurements, averaged over five sample runs at each time point, were used to calculate hydrodynamic diameter (Dh).
# [3] = Stability in artificial gastric acid solution, 167 mM HCl, 37° C. (chymotrypsin-pQA); assay type: physicochemical; settings: 167 mM HCl (pH 1)
# Procedure: Native CT and conjugates (1.5 to 2.0 mL, 4.0 μM) were incubated in 100 mM sodium phosphate buffer (pH 7.0) at 50 or 60° C., and an artificial gastric acid solution (167 mM HCl aq. pH 1.5) at 37° C. Aliquots (50 μL) were removed and kept at 0° C. before measuring residual activity. The residual activity was calculated as a ratio of initial rates of hydrolysis reaction at given incubation time over the initial activity for each specific sample.
# Suc-AAPF-pNA = target: T1, Suc-AAPF-pNA (Bos taurus, UniProt P00766); experiment: Enzyme activity: hydrolysis of Suc-AAPF-pNA at pH 5-10 (native CT, chymotrypsin-pQA conjugates); assay type: biochemical; settings: 0.1 M phosphate buffer
# T1 construct: purchased Sigma Aldrich; host or cells: bovine pancreas
# Procedure: N-Succinyl-Ala-Ala-Pro-Phe p-nitroanilide (0 to 50 μL of 9.60 mM in DMSO) was added to sodium phosphate buffer (990 to 940 μL of 100 mM, pH 5-10). Native CT or conjugates solution (10 μL of 4.0 μM) was added to the substrate solution. The initial rate of hydrolysis of the peptide substrate was monitored by recording the increase in absorption at 412 nm using a UV-VIS spectrometer. The Michaelis-Menten parameters (kcat, KM and kcat/KM) were determined by non-linear curve fitting (using the well known Michaelis-Menten kinetics equation, V=Vmax[S]/KM+[S], […] where [E] is enzyme concentration, [S] is substrate concentration, and V is initial rate of the reaction) of plots of initial rate versus substrate concentration using the Enzfitter software.
# Enzyme activity (kcat), specificity (KM), and productivity (kcat/KM) values were determined for each of the conjugates and native chymotrypsin at 25° C. in 0.1 M phosphate buffer (pH 5-10). Values were determined by monitoring the enzyme catalyzed hydrolysis of Suc-AAPF-pNA. Enzyme concentration for each of the reactions was 39 nM, with substrate concentrations ranging from 0-700 μM. The reaction was monitored for the first 30 seconds after mixing enzyme and substrate.
# [4] = Thermal stability at 37° C., pH 8.0; assay type: physicochemical; settings: 8 hours incubation at 40 μM, 0.1 M sodium phosphate pH 8.0, 37° C.
# Procedure: Native CT and CT-conjugates (40 μM) were dissolved in 0.1 M sodium phosphate buffer (pH 8.0) and incubated in a water bath in 50 μL aliquots at 37° C. At specified time points, aliquots were removed and diluted to 4 μM using 0.1 M sodium phosphate buffer (pH 8.0). Residual activity, measured in 0.1 M sodium phosphate buffer (pH 8.0) at 25° C., was calculated as the ratio of activity remaining relative to the activity at time zero. Substrate (Suc-AAPF-pNA) concentration was kept constant at 288 μM for each sample and time point. Native CT and conjugate activities were measured in duplicate at each time point.
# NS-AAPF-pNA = target: T2, NS-AAPF-pNA (Bos taurus, UniProt P00766); experiment: CT and CT conjugate biocatalytic activity, 2.5 to 37.5° C.; assay type: biochemical
# T2 construct: purchased Sigma Aldrich; host or cells: bovine pancreas
# Procedure: N-succinyl-L-Ala-L-Ala-L-Pro-L-Phe-p-nitroanilide was used as a substrate for enzyme bioactivity assays. In a cuvette, 0.1 M sodium phosphate buffer (2820-2970 μL, pH 8.0), substrate (0-150 μL, 6 mg/mL in DMSO (0-500 μM)), and enzyme (30 μL, 0.1 mg enzyme/mL 0.1 M pH 8.0 sodium phosphate buffer (0.04 μM)) were mixed. The rate of the hydrolysis was determined by recording the increase in absorbance at 412 nm for the first 30 seconds after mixing. KM and kcat values were calculated using EnzFitter software when plotting substrate concentration versus initial hydrolysis velocity.
# CT conjugate kinetics were examined at a variety of temperatures (2.5° C., 7° C., 16.5° C., 24.5° C., 33° C., and 37.5° C.) to determine the effect of polymer UCST and LCST phase transitions and molecular weight on enzyme kinetics (see FIGS. 11(a)-(c) and Table 16 below).
substance,measurement,setting,value
α-Chymotrypsin (CT) from bovine pancreas (type II) [Native CT],kinact,[1]; 25° C.,0.13 ± 1.2 × 10^−2 days−1
same,t1/2,[1]; 25° C.,5.43 ± 0.51 days
same,kinact,[1]; 40° C.,6.61 ± 0.47 day⁻¹
same,t1/2,[1]; 40° C.,0.10 ± 7.5 × 10^−3 days
same,increase of hydrodynamic diameter (Dh),"[2]; 37° C., after 2 hours",9 fold
same,hydrodynamic diameter Dh at time zero,[2]; time zero,6.3±0.5 nm
same,time after which all activity was lost,[3],3 h
same,Km,"Suc-AAPF-pNA; pH 5.0, 25° C.",184 µM
same,kcat,"Suc-AAPF-pNA; pH 5.0, 25° C.",2.85 s⁻¹
same,Km,"Suc-AAPF-pNA; pH 6.0, 25° C.",171 µM
same,kcat,"Suc-AAPF-pNA; pH 6.0, 25° C.",14.80 s⁻¹
same,Km,"Suc-AAPF-pNA; pH 7.0, 25° C.",94.3 µM
same,kcat,"Suc-AAPF-pNA; pH 7.0, 25° C.",26.81 s⁻¹
same,Km,"Suc-AAPF-pNA; pH 8.0, 25° C.",82.6 µM
same,kcat,"Suc-AAPF-pNA; pH 8.0, 25° C.",32.00 s⁻¹
same,Km,"Suc-AAPF-pNA; pH 9.0, 25° C.",123 µM
same,kcat,"Suc-AAPF-pNA; pH 9.0, 25° C.",33.30 s⁻¹
same,Km,"Suc-AAPF-pNA; pH 10.0, 25° C.",336 µM
same,kcat,"Suc-AAPF-pNA; pH 10.0, 25° C.",36.62 s⁻¹
same,activity lost,[4],lost half of its activity
same,Km,"NS-AAPF-pNA; 2.5° C., 0.1 M sodium phosphate pH 8.0",30 ± 5.1 µM
same,kcat,"NS-AAPF-pNA; 2.5° C., pH 8.0",8.9 ± 0.4 s⁻¹
same,kcat,"NS-AAPF-pNA; 2.5° C., pH 8.0, listed as native chymotrypsin",8.9 ± 0.4 s⁻¹
same,Km,"NS-AAPF-pNA; 7° C., pH 8.0",29 ± 6.9 µM
same,kcat,"NS-AAPF-pNA; 7° C., pH 8.0",9.7 ± 0.5 s⁻¹
same,kcat,"NS-AAPF-pNA; 7° C., pH 8.0, listed as native chymotrypsin",9.7 ± 0.5 s⁻¹
same,Km,"NS-AAPF-pNA; 16.5° C., pH 8.0",37 ± 8.6 µM
same,kcat,"NS-AAPF-pNA; 16.5° C., pH 8.0",16 ± 0.9 s⁻¹
same,kcat,"NS-AAPF-pNA; 16.5° C., pH 8.0, listed as native chymotrypsin",16 ± 0.9 s⁻¹
same,Km,"NS-AAPF-pNA; 24.5° C., pH 8.0",51 ± 8.7 µM
same,kcat,"NS-AAPF-pNA; 24.5° C., pH 8.0",25 ± 1.3 s⁻¹
same,kcat,"NS-AAPF-pNA; 24.5° C., pH 8.0, listed as native chymotrypsin",25 ± 1.3 s⁻¹
same,Km,"NS-AAPF-pNA; 33° C., pH 8.0",57 ± 5 µM
same,kcat,"NS-AAPF-pNA; 33° C., pH 8.0",36 ± 1.3 s⁻¹
same,kcat,"NS-AAPF-pNA; 33° C., pH 8.0, listed as native chymotrypsin",36 ± 1.3 s⁻¹
same,Km,"NS-AAPF-pNA; 37.5° C., pH 8.0",59 ± 6.9 µM
same,kcat,"NS-AAPF-pNA; 37.5° C., pH 8.0",47 ± 1.7 s⁻¹
same,kcat,"NS-AAPF-pNA; 37.5° C., pH 8.0, listed as native chymotrypsin",47 ± 1.7 s⁻¹
